Test results as given in patent publication US20240262884A1 (University of Pennsylvania, published 2024).

B1: P4-6 recombinant human/rabbit chimeric Fab (Fab, V domains shown)
VH: EQLKESGGGLFKPTDTLTLTCTVSGFSLSYYGVNWVRQAPGNGLEWIGTIGGSGDTYYASWAKSRSTIIRNTNENTVTLKMTSLTAADTATYFCVRYANIGYEYFNVWGPGTLVTVSS
VL: QFVLTQSPSASAALGASAKLTCTLSSAHKTYTIDWYQQQKGKAPRYLIQVKSDGTYTKATGVPDRFSGSSSGADRYLIIPSVQADDEADYYCGTDYTGGYVFGGGTQLTVT
notes: Both formats are written under this one molecule; also called Fab P4-6; P4-6 phage antibody
B2: P4-10 recombinant human/rabbit chimeric Fab (Fab, V domains shown)
VH: QSVKESEGGLFKPTDTLTLTCTVSGFSLSRHALTWVRQAPGNGLEWIGAIDNAGTTYYASWAKSRSTITRNTDLHTVTLKMTSLTASDTATYFCARVFYDINSGYYLDGMDLWGPGTLVTVSS
VL: QFVLTQSPSVSAALGASAKLTCTLSSAHKTYTIDWYQQQQGEAPRYLMQVKSDGSYTKGTGVPDRFSGSSSGADRYLIIPSVQADDEAGYVCGADDNGGYVFGGGTQLTVT
notes: Both formats are written under this one molecule; also called Fab P4-10; P4-10 phage antibody

Experiments:
[1] = molecular target: T1, GFRα4 isoform b human Fc bivalent fusion protein (Asn24-Val274, TEV site and linker, human IgG1 Fc fragment); … (human); test: ELISA, soluble recombinant human/rabbit chimeric Fab, HRP-anti human Fab detection (FIG. 3)
T1 construct: also called GFRα4b; GFRalpha4 isoform b

[2] = molecular target: T2, GFRα4 isoform a human Fc bivalent fusion protein (Asn24-Ser245, Factor Xa site, human IgG1 Fc fragment, … (human)); test: as above
T2 construct: also called GFRα4a; GFRalpha4 isoform a
T2 chain: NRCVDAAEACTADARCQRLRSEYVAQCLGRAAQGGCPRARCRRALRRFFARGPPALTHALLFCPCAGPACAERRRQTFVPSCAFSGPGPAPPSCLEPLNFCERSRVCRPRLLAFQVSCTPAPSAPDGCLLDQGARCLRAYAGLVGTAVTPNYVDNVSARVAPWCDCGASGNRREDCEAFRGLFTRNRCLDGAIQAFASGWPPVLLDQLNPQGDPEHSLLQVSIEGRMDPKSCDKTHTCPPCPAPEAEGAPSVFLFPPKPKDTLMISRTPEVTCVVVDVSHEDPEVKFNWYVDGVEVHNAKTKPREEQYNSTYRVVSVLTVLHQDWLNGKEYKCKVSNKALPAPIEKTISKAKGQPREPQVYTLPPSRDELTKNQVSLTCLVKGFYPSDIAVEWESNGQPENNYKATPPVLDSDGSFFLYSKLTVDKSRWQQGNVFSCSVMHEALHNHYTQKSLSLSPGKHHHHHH

[3] = molecular target: T3, human GFRα3 (R&D Systems, Fc-fusion protein) (human, UniProt O60609 32-382, limits assumed); test: ELISA with soluble Fab, HRP-anti human Fab detection (FIG. 3)
T3 construct: not shown: Fc part of the bought fusion protein
T3 sequence (looked up): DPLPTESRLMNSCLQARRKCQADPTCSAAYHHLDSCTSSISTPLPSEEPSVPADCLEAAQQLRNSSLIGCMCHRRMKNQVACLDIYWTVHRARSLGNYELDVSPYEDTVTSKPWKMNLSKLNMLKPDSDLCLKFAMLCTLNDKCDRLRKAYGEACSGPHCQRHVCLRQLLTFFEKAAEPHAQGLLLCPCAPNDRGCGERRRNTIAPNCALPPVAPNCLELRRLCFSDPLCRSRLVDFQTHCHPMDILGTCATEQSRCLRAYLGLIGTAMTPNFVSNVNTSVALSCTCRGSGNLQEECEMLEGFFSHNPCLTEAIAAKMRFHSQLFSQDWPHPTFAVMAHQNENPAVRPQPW

[4] = molecular target: T4, human GFRα1 (R&D Systems, Fc-fusion protein) (human, UniProt P56159 25-429, limits assumed); test: as above
T4 construct: not shown: Fc part of the bought fusion protein
T4 sequence (looked up): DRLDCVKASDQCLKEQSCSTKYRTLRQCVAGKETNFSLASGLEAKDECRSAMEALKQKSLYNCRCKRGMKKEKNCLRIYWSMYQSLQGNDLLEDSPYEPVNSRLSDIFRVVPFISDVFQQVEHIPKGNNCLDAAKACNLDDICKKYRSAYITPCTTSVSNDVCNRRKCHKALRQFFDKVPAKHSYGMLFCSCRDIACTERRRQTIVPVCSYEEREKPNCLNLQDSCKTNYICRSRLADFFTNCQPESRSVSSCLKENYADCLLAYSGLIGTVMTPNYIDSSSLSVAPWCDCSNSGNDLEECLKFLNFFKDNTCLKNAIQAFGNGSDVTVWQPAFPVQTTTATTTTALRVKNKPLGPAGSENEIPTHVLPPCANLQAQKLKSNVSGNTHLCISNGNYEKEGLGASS

[5] = molecular target: T5, human GFRα2 (R&D Systems, Fc-fusion protein) (human, UniProt O00451 22-441, limits assumed); test: as above
T5 construct: not shown: Fc part of the bought fusion protein
T5 sequence (looked up): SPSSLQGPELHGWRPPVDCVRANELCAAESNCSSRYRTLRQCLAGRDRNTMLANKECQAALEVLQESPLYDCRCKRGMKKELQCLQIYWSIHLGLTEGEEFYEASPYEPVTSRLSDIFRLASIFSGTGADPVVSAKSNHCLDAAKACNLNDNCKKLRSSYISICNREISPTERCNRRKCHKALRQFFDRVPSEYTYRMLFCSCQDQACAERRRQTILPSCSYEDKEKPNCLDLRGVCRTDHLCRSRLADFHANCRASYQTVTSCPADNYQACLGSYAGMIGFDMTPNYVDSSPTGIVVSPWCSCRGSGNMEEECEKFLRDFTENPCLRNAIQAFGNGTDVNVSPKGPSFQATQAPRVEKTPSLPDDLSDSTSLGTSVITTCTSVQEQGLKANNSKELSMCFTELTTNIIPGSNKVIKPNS

Binder	binding result [1]	binding result [2]	binding result [3]	binding result [4]	binding result [5]
B1	binds	binds	no binding	no binding	no binding
B2	binds	binds	no binding	no binding	no binding
